The record followed here is US20080219983A1 (TRIMESTER CUSHION, published 2008).

Assay [1] addresses Purified placenta-derived low-density lipoprotein receptor-related protein (LRP) (UniProt Q07954). The assay is described as follows: SPR, immobilised LRP, two-site model, site class 1.
The target is the same in assay [2]. Briefly: SPR, immobilised LRP, two-site model, site class 2.
For assay [3] the target is unchanged. Briefly: SPR, immobilised LRP, steady-state affinity analysis. For orientation: SPR reads the build-up and loss of mass on a sensor chip optically.
Assay [4] concerns the target T1, Recombinant LRP cluster II (UniProt Q07954 805-1184, limits assumed).
T1 construct: domain: cluster II
T1 sequence (looked up): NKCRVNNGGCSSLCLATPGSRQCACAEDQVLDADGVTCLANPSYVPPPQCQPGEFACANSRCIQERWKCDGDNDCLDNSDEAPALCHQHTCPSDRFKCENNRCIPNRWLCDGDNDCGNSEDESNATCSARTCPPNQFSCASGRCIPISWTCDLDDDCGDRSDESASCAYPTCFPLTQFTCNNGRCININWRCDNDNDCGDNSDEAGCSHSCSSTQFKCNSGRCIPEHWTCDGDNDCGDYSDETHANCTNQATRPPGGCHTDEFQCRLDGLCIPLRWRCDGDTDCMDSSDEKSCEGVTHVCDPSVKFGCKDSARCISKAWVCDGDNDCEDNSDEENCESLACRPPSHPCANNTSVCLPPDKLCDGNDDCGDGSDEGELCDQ
The assay is described as follows: solid-phase competition: peptide against FVIII light chain (25 nM) binding to immobilised LRP cluster II. The procedure: (§1) Solid-phase Binding Assays—Recombinant LRP clusters II or IV (1 pmol/well) were adsorbed onto microtiter wells in 50 mM NaHCO₃ (pH 9.8) in a volume of 50 μl for 16 h at 4° C. Wells were blocked with 2% (w/v) HSA, 150 mM NaCl, 5 mM CaCl₂, and 50 mM Tris (pH 7.4) in a volume of 200 μl for 1 h at 37° C. […] Bound ligand was detected by incubating with peroxidase-conjugated monoclonal antibody CLB-CAg 12 in the same buffer for 15 min at 37° C. […] Residual FVIII binding was detected as described above.
Half-maximum inhibition constants (IC₅₀) represent the mean values ±S.D. of three experiments.)

In assay [5] the target is T1, Recombinant LRP cluster II. Briefly: solid-phase binding assay: serial dilutions of FVIII light chain on immobilised LRP cluster II (1 pmol/well); detection with peroxidase-conjugated CLB-CAg 12. The procedure: FIG. 2. […] Data represent the mean ±S.D. of three experiments
as §1

By Kd is commonly meant the constant that tells how readily two partners part at equilibrium. A lower Kd goes with tighter binding. As usually defined, the koff is the rate constant with which the complex falls apart. The kon is a measure of how fast the partners come together. Low readings indicate slower complex formation, high ones faster complex formation. By IC50 is commonly meant the concentration that gives 50% inhibition. Usually EC50 (read off the curve) stands for the midpoint of the concentration-response curve.

Purified placenta-derived low-density lipoprotein receptor-related protein (LRP), sequence (Q07954 20-4544, form in doubt): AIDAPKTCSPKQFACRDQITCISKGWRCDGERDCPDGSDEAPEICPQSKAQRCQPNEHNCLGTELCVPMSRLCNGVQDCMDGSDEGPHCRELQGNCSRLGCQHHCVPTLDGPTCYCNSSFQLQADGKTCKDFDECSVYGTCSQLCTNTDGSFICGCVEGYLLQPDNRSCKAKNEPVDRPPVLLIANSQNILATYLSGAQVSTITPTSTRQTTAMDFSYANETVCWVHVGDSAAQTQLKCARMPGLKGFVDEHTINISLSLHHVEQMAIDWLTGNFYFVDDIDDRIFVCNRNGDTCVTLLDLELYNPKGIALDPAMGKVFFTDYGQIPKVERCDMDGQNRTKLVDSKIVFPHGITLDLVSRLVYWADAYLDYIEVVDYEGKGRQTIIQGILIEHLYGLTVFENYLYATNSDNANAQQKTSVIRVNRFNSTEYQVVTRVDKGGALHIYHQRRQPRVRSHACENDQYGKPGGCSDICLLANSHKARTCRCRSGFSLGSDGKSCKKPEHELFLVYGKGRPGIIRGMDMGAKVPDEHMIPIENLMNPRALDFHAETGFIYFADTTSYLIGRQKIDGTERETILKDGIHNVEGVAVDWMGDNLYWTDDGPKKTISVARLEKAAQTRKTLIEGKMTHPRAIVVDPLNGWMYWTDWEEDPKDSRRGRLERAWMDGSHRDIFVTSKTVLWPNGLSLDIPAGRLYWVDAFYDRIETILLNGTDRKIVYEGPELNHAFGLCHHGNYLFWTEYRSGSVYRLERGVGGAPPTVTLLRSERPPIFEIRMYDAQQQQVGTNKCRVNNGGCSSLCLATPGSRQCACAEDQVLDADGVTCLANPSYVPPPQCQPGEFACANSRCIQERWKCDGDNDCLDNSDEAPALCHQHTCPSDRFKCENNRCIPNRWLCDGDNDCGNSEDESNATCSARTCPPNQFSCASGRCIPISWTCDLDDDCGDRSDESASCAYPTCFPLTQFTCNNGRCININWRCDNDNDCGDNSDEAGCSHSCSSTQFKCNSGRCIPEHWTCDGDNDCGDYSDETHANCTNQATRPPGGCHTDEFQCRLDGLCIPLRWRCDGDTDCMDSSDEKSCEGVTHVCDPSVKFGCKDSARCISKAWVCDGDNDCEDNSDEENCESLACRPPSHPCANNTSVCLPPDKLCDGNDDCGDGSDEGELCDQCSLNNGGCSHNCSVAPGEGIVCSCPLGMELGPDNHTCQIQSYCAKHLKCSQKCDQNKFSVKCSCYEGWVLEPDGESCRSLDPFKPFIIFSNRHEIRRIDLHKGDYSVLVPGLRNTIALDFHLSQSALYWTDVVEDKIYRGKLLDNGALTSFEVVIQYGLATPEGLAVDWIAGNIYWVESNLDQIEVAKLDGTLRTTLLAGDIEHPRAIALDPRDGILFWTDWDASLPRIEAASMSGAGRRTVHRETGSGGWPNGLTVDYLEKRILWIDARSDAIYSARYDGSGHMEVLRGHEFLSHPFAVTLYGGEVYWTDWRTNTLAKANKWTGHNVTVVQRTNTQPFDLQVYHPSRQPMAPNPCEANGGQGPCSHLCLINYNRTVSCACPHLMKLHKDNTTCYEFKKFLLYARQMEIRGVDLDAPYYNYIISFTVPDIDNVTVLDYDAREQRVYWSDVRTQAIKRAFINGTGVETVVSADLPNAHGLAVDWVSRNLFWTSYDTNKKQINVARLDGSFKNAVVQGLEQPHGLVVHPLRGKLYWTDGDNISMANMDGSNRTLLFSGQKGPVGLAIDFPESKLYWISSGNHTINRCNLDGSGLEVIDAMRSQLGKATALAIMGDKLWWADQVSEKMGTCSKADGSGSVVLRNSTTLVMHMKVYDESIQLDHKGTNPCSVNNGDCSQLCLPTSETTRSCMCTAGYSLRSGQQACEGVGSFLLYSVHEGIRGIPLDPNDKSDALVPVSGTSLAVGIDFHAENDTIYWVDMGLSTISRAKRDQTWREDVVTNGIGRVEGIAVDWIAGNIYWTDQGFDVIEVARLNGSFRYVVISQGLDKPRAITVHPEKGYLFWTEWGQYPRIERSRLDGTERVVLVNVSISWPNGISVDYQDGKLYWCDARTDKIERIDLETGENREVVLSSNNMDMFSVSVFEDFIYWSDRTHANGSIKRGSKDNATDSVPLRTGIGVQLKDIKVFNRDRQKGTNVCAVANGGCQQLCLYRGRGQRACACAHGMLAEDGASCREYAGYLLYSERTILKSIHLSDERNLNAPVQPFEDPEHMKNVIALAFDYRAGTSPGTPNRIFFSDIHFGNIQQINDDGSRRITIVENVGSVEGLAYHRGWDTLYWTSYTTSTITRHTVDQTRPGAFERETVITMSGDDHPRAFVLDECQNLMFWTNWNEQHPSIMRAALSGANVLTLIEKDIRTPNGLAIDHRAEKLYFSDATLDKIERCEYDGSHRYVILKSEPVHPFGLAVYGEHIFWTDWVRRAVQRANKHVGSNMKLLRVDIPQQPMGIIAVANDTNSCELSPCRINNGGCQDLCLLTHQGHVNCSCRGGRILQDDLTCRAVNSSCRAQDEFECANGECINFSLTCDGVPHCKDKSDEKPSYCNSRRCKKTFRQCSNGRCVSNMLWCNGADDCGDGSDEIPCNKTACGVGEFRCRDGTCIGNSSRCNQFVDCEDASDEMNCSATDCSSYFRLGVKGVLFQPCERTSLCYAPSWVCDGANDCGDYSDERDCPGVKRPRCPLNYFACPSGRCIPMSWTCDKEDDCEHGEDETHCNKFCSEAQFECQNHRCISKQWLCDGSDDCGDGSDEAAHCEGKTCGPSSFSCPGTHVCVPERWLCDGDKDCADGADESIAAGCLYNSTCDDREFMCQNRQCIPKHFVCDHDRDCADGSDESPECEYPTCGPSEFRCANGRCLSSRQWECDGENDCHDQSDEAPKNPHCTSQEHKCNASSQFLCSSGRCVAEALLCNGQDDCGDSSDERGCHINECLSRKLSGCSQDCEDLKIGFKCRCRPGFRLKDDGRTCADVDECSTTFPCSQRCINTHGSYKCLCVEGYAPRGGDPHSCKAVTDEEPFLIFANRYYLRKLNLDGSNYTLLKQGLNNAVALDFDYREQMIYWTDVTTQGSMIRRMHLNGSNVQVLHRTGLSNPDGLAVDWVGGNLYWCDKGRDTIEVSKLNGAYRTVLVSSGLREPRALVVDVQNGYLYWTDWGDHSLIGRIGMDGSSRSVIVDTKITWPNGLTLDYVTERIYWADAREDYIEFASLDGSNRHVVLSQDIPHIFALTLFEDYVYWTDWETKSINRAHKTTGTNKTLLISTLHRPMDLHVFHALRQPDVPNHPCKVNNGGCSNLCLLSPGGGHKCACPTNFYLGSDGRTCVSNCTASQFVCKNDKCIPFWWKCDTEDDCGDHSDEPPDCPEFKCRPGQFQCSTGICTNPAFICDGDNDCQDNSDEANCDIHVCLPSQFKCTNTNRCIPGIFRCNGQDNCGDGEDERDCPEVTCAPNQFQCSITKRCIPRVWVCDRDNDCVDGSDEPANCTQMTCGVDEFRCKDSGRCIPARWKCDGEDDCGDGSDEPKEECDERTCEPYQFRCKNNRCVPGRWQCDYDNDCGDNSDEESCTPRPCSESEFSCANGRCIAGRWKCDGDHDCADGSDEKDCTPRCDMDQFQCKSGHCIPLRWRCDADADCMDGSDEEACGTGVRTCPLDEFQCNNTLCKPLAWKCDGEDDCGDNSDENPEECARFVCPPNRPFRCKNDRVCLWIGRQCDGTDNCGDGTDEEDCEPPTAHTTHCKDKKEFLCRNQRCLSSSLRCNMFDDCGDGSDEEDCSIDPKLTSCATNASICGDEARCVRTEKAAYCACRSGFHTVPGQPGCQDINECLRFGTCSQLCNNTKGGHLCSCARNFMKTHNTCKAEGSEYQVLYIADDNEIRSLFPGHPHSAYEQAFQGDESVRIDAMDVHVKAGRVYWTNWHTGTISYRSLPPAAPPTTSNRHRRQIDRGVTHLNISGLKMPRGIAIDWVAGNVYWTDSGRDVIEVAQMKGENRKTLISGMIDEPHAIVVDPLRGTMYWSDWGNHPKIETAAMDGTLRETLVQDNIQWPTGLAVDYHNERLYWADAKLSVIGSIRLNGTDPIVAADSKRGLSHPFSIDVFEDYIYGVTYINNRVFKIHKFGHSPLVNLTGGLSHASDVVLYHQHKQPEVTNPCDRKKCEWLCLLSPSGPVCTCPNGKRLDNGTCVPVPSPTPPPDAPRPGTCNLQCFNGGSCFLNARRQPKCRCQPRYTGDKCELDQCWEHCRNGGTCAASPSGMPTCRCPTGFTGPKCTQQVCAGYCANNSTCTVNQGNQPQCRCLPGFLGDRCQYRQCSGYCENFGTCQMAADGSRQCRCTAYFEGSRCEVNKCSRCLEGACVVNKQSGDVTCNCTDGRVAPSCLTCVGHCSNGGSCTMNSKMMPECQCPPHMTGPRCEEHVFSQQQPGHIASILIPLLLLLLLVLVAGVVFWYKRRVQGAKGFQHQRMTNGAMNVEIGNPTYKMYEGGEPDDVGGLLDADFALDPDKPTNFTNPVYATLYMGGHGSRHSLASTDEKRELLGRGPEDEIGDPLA

In assay [1], “Factor Xa-cleaved FVIII light chain (from UniProt P00451 1741-2351)” came in with a Kd of 22 nM, a koff of 0.003 s⁻¹ and a kon of 130000 M⁻¹ s⁻¹. In assay [2], this molecule returned a Kd of 60 nM, a koff of 0.056 s⁻¹ and a kon of 900000 M⁻¹ s⁻¹.

In assay [3], “Recombinant FVIII C2 domain (from UniProt P00451 2192-2351)” had a Kd of 3400 nM.

As for “Recombinant FVIII a3-A3-C1 fragment (from UniProt P00451 1668-2191)”, in assay [1], the Kd was determined as 26 nM, the koff worked out at 0.0041 s⁻¹ and the kon was 160000 M⁻¹ s⁻¹. In assay [2], the Kd was 74 nM, the koff amounted to 0.08 s⁻¹ and the kon amounted to 1.1e+06 M⁻¹ s⁻¹.

In the case of YFWKVQHHMAPTKDEFDCKA [Synthetic peptide FVIII Tyr^1815-Ala^1834], the IC50 in assay [4] is 16800 nM.

Regarding DGKKWQTYRG (also called 2108-2117) [Synthetic peptide FVIII Asp^2108-Gly^2117], in assay [4], the IC50 is 900000 nM.

B1: Plasma-derived FVIII light chain (other, UniProt P00451 1668-2351, looked up)
chain: EITRTTLQSDQEEIDYDDTISVEMKKEDFDIYDEDENQSPRSFQKKTRHYFIAAVERLWDYGMSSSPHVLRNRAQSGSVPQFKKVVFQEFTDGSFTQPLYRGELNEHLGLLGPYIRAEVEDNIMVTFRNQASRPYSFYSSLISYEEDQRQGAEPRKNFVKPNETKTYFWKVQHHMAPTKDEFDCKAWAYFSDVDLEKDVHSGLIGPLLVCHTNTLNPAHGRQVTVQEFALFFTIFDETKSWYFTENMERNCRAPCNIQMEDPTFKENYRFHAINGYIMDTLPGLVMAQDQRIRWYLLSMGSNENIHSIHFSGHVFTVRKKEEYKMALYNLYPGVFETVEMLPSKAGIWRVECLIGEHLHAGMSTLFLVYSNKCQTPLGMASGHIRDFQITASGQYGQWAPKLARLHYSGSINAWSTKEPFSWIKVDLLAPMIIHGIKTQGARQKFSSLYISQFIIMYSLDGKKWQTYRGNSTGTLMVFFGNVDSSGIKHNIFNPPIIARYIRLHPTHYSIRSTLRMELMGCDLNSCSMPLGMESKAISDAQITASSYFTNMFATWSPSKARLHLQGRSNAWRPQVNNPKEWLQVDFQKTMKVTGVTTQGVKSLLTSMYVKEFLISSSQDGHQWTLFFQNGKVKVFQGNQDSFTPVVNSLDPPLLTRYLRIHPQSWVHQIALRMEVLGCEAQDLY
notes: domain: light chain (a3-A3-C1-C2); Prepared from plasma as in the cited literature; Human by context (the peptides are said to cover human FVIII regions); Residue numbers count on mature FVIII, without the signal peptide; also called LCh; 80-kDa light chain (a3-A3-C1-C2)
For the molecule B1, in assay [5], the “EC50 (read off the curve)” value is ~20 nM. For the same molecule, the Kd in assay [1] turned out to be 18 nM; in assay [2], 59 nM.

As for KNFVKPNETKTYFWK [Synthetic peptide FVIII Lys^1804-Lys^1818], the IC50 in assay [4] was determined as 1900 nM.
